Data: US20220242973A1 (Molecular Partners, published 2022)
Positions count from the first letter of the chain named.

T1: Human FAP expressed on the cell surface (WI38, CHO-FAP1.9, U87MG cells) (human, UniProt Q12884 1-760)
T1 construct: whole, on cells; Endogenous on WI38 and U87MG cells; from a human FAP cDNA (OriGene) in CHO-FAP1.9 cells; also called hFAP; FAP+ cells
T1 sequence (looked up): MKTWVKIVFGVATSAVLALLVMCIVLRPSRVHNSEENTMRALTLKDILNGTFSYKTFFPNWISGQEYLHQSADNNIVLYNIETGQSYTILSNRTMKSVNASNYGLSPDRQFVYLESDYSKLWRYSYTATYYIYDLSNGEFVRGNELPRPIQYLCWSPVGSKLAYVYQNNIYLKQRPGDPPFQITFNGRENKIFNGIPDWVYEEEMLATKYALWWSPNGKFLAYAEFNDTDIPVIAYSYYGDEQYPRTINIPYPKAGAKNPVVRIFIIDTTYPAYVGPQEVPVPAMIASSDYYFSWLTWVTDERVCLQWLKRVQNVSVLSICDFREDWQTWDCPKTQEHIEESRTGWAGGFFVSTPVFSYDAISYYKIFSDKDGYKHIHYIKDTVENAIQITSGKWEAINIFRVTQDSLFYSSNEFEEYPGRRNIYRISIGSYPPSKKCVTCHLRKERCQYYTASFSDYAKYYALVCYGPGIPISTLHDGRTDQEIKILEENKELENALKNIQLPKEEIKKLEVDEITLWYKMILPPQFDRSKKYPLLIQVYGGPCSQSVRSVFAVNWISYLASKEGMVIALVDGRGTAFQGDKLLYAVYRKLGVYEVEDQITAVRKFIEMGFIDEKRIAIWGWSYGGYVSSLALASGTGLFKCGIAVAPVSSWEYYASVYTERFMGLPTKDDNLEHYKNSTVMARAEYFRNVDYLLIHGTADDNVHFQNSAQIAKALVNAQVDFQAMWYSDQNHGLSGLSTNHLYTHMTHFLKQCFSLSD

T2: Recombinant human FAP (fibroblast activation protein) (human, UniProt Q12884 26-760)
T2 sequence (looked up): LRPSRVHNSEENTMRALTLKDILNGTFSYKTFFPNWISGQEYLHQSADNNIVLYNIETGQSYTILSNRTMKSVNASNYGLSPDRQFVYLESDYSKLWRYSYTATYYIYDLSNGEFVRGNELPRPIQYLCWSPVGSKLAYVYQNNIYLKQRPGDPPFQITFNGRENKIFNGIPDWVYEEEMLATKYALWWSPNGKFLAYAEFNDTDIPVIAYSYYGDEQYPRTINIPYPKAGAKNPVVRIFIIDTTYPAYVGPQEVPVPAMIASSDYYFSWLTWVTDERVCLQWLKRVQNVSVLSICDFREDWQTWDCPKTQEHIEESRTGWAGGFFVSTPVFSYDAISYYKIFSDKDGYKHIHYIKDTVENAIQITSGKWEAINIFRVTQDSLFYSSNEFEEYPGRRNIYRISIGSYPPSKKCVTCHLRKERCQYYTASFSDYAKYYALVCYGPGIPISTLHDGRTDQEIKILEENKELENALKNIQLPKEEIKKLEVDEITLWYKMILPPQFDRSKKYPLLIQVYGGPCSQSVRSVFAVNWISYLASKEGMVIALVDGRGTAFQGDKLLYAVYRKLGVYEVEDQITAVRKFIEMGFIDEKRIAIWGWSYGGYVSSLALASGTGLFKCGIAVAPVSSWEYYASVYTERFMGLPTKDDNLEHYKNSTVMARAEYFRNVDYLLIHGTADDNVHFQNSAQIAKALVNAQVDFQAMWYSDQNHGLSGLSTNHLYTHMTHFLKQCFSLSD

B1: DARPin® protein #34 (designed binder)
chain: MRGSHHHHHHGSDLGKKLLEAARAGQDDEVRELLKAGADVNAKDVLGWTPLHLAAFEGHLEIVEVLLKAGADVNAKDKKGWTPLQLAARTGHLEIVEVLLKAGADVNAKDHIGATPLHLAAWQGHPEIVEVLLKAGADVNAQDKSGKTPADLAADAGHEDIAEVLQKAA
B2: DARPin® protein #36 (designed binder)
chain: B1 chain with E32I, K35A, A168L, A169N
B3: DARPin® protein #39 (designed binder)
chain: MRGSHHHHHHGSDLGKKLLEAARAGQDDEVRELLKAGADVNAKDEWGKTPLHLAAIRGHLEIVEVLLKAGADVNAKDTHGITPLHLAAFVGHLEIVEVLLKAGADVNAKDYLGRTPLHIAAAKGHLEIVEVLLKAGADVNAQDKSGKTPADLAADAGHEDIVEVLQKLN
B4: DARPin® protein #35 (designed binder)
chain: MRGSHHHHHHGSDLGEKLLVAALYGQDDEVRELLKAGADVNAKDQWGLTPLHKAALQGHLEIVEVLLKAGADVNAKDERGHTPLHWAARFGHLEIVEVLLKAGADVNAQDQKGYTPADLAALWGHEDIAEVLQKAA
B5: DARPin® protein #37 (designed binder)
chain: B4 chain with E32I, K35A, A135L, A136N
B6: DARPin® protein #38 (designed binder)
chain: MRGSHHHHHHGSDLGKKLLEAARAGQDDEVRELLKAGADVNAKDEVGRTPLHLAAQIGHLEIVEVLLKAGADVNAKNRWGVTPLHVAAWVGHLEIVEVLLKAGADVNAKDQQGATPLHLAAIRGHLEIVEVLLKAGADVNAQDKSGKTPADLAADAGHEDIAEVLQKLN

Key:
[1] = target: T1, Human FAP expressed on the cell surface …; assay: FACS on WI38 cells
Description: Using multi-well plates, 20,000 WI38 cells were added per well in 50 μl of PBS. 50 μl of appropriate dilutions (2× dilution steps) of ankyrin repeat protein was then added to the cells and incubated for 30 minutes on ice. After the ankyrin repeat protein-binding reaction, cells were washed twice with PBS. Direct immunofluorescent detection of the His-tagged ankyrin repeat proteins using Penta-His AF647 conjugate (QIAgen) and determination of live cells using LIVE/DEAD™ Fixable Green Dead Cell Stain Kit (ThermoFisher) were then performed together in one step. The Penta-His AF647 conjugate and the LIVE/DEAD™ Fixable Green dye were applied to the cells together in 1/200 (Penta-His) and 1/1000 (LID Fixable) final dilutions and incubated for 20-30 minutes on ice. After washing the cells with PBS, cells were re-suspended in 1× CellFix™ buffer (BD Biosciences) (10× stock was diluted 1/10 in water). […] Acquisition and FACS analysis, including the determination of median fluorescence intensity (MFI), were done within 5 days after staining using an AttuneNxT instrument. […]
Similarly, binding of the engineered ankyrin repeat proteins, i.e. DARPin® protein #34 and DARPin® protein #35, to FAP-expressing WI38 cells was also tested essentially as described above. Fold increase MFI was calculated by dividing the sample MFI by the MFI of the background control. […]

[2] = target: T2, Recombinant human FAP (fibroblast …); assay: cell-based or functional assay
[3] = target: T1, Human FAP expressed on the cell surface …; assay: FACS on CHO-FAP1.9 cells (human FAP transfectants)
[4] = target: T1, Human FAP expressed on the cell surface …; assay: FACS on FAP-expressing WI38 cells, Penta-His AF647 detection
Summary of the method: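 WI38 cells (20,000/well) incubated 30 min on ice with 2-fold dilutions of His-tagged ankyrin repeat proteins, washed, stained with Penta-His AF647 plus live/dead dye, fixed. Median fluorescence by flow cytometry; EC50 from non-linear regression of binding curves.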

Row | Binder | EC50 [1] [nM] | FAP activity (%) [2] [%] | EC50 [3] [nM] | EC50 [4] [nM]
1 | B1 | 0.736 | 93 | 1.19 | –
2 | B2 | – | – | – | 0.235
3 | B3 | – | – | – | 0.203
4 | B4 | 0.994 | 90 | 2.02 | –
5 | B5 | – | – | – | 0.118
6 | B6 | – | – | – | 0.106
